# Laboratory results published in the supplement of paper PMC12764529.
# ± gives the half width of the 95% confidence interval.
# Legend:
# [1] = folding stability dG unfold from trypsin proteolysis; higher = more stable
# Summary of the method: (§1)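 Unfolding free energy was derived, per protease or combined, by relating Bayesian-fitted K50 values from sequencing counts to a sequence-predicted unfolded-state K50 and a shared folded-state K50. The underlying digests exposed cysteine-free mini-proteins under 80 residues, in a PA-tagged cDNA display construct, to trypsin and chymotrypsin at 11 threefold-diluted concentrations and to a no-protease condition. A filter kept only designs with AlphaFold2 dimer inter-PAE above 15.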
# [2] = folding stability dG unfold (combined trypsin and chymotrypsin); higher = more stable
# Summary of the method: as §1
# [3] = folding stability dG unfold from chymotrypsin proteolysis; higher = more stable
# Summary of the method: as §1
Sequence,folding stability dG unfold [1],folding stability dG unfold [2],folding stability dG unfold [3]
SMKRVLILVPDPSVDKEELIEELKKKGFEDIEVVDSEEELKKLPENIDVVVIVRDGEVEVREVPPVEALKSA [r9_750_JUSTAS],0.698 ± 0.037 kcal/mol,0.706 ± 0.11 kcal/mol,0.585 ± 0.1 kcal/mol
MTPEERIEEIEAKARELLRELGLPPEVRLTVEAEVRPRPDGRLELRVRVTVEFPGPPGAIPPELLEALAEES [r1_98_TrMRF],2.7 ± 0.081 kcal/mol,2.53 ± 0.14 kcal/mol,2.38 ± 0.086 kcal/mol
SAGGMPYRLDAVRVEVRPRPDGGPLLVVELTYPDGSRETAVFDSPEDLLRALENSPRFSEITLLPSVSAGGS [r16_757_TrMRF],1.01 ± 0.017 kcal/mol,0.739 ± 0.046 kcal/mol,0.16 ± 0.088 kcal/mol
SAGGSATLKEIAKEIEKTVKPKYAKKLAKTIEEAVKKGYEIKKIIIEKPKDDSFKATIYLKKPNDPSAGGSA [r15_613_TrMRF],0.676 ± 0.14 kcal/mol,0.66 ± 0.27 kcal/mol,0.294 ± 0.45 kcal/mol
SAGGSASAEELAAELARRLAEELGLEVTKVEITEVTPDRVVVRVTVTVTLPNGEKVTRELTLVLEPSAGGSA [r15_276_TrROS_Hall],2.16 ± 0.054 kcal/mol,3.05 ± 0.11 kcal/mol,3.24 ± 0.12 kcal/mol
SAGGSAGGMFYVVRLEGPDGPLRTLVRPAESLEEARAFAEALAPEGARVTVEPLEEEEAERLLGSAGGSAGG [r6_267_TrMRF],1.07 ± 0.057 kcal/mol,2.13 ± 0.065 kcal/mol,2.54 ± 0.053 kcal/mol
SAGGSAGGKIKPGEKVKVKVKIKNKNGEVFEATATVVDGKIFIEVDGKIYEISADDIEEIEVEPSAGGSAGG [r6_132_TrROS_Hall],1.47 ± 0.042 kcal/mol,2.37 ± 0.22 kcal/mol,2.92 ± 0.099 kcal/mol
SAGGSAMAPNVRPIPIFIDVPAEPFTRDPDGRIGLTPEELARRLAEEIRARTGAPIDTIVVHFHEPSAGGSA [r15_415_TrMRF],0.773 ± 0.11 kcal/mol,0.409 ± 0.092 kcal/mol,-0.0348 ± 0.18 kcal/mol
SAGGSAGGSAGGMKIPPSLLTEVKESIVPTPEGSTKITTVTAKVPGTGEVVTYTLTTPVASAGGSAGGSAGG [r7_348_JUSTAS],0.0354 ± 0.032 kcal/mol,-0.242 ± 0.11 kcal/mol,-0.744 ± 0.31 kcal/mol
SAGGETLTVTVLIKNKDEKNKYYKVEVKVTVEKNENGEKTLTIEMKITDKNGNKKTIKVNLKDIKIIDSAGG [r13_787_TrROS_Hall],2.52 ± 0.26 kcal/mol,3.69 ± 0.32 kcal/mol,4.33 ± 0.24 kcal/mol
SAGGGKKTKYVLLTFNPKEVKAEDLEKEILKKGAEIYIGDKPIDPGKGVKEVMKANPNTTFLVKIYDSAGGS [r8_38_TrMRF],1.11 ± 0.11 kcal/mol,1.12 ± 0.32 kcal/mol,1.61 ± 0.42 kcal/mol
SAGGGSTVTTTTPDGTSVSTTTLPDGTVTATATYPDSTVSTTYDPATNTTTVTTTSGGTTVATTTVAASAGG [r13_748_JUSTAS],2.48 ± 0.11 kcal/mol,1.89 ± 0.065 kcal/mol,1.39 ± 0.031 kcal/mol
SAGGGISIVSGDPEITPEKAEAIAAELAAILEEKGFTPKDAELARLPGGRILVTITVDDGKPIVFSLSAGGS [r8_485_TrMRF],1.77 ± 0.041 kcal/mol,1.49 ± 0.028 kcal/mol,1.15 ± 0.019 kcal/mol
SAGGSAGGSAGGMTYVTVTLKEGDTEVTLTFPLEKLPEVVPEPGIEILEVETSPLDPELLSAGGSAGGSAGG [r17_204_JUSTAS],1.34 ± 0.081 kcal/mol,1.05 ± 0.12 kcal/mol,0.737 ± 0.14 kcal/mol
SAGEPDKPFTLTLKLLLPQSEDGTPLTPEEAEELAKEISTELGVEVEEIKITSNPEGNFVEIEVKLRGSAGG [r19_322_TrMRF],2.02 ± 0.031 kcal/mol,2.4 ± 0.059 kcal/mol,2.568 ± 0.015 kcal/mol
SAGGSAGGSAGGGVVTLPDLKGLSEEELKALAEEIAKKLGLENVPLKLEFGEDGNLTLVLSAGGSAGGSAGG [r7_810_JUSTAS],2.15 ± 0.077 kcal/mol,1.74 ± 0.11 kcal/mol,1.24 ± 0.054 kcal/mol
SFSISTETKVVPQDGRLLIEYEFTVPNAPPGDTAALTLSVSHPSGASTSTSQTADPAGTYTAKFVVDIPLTS [r1_161_JUSTAS],0.437 ± 0.061 kcal/mol,0.527 ± 0.053 kcal/mol,0.471 ± 0.09 kcal/mol
SAGGSAGGSPESVTFPVGDYLVTVTRNPEDGSLTVTVYDPKTGKPIVLPPEVLAENPDLAENLSAGGSAGGS [r12_817_TrMRF],3.14 ± 0.11 kcal/mol,2.68 ± 0.056 kcal/mol,2.35 ± 0.058 kcal/mol
SAGGSAGGSVIPYFDENAVALLVKGPGDYYRIIFKPNDGYLVLLLPKEVIKSKPIPIGELLKKSAGGSAGGS [r20_90_TrMRF],0.672 ± 0.11 kcal/mol,0.948 ± 0.43 kcal/mol,1.33 ± 0.38 kcal/mol
SAGGSAGGSAGGGLGYRTLTGRVEFELNITYLTEDGSPATLNLRFELELRFVVPVPPDYPSAGGSAGGSAGG [r7_926_TrMRF],3.7 ± 0.14 kcal/mol,5.37 ± 0.14 kcal/mol,5.54 ± 0.098 kcal/mol
SAGGSAGGMVLRITLPNGEVIEIPLEELGLSEEERKRRLAELLAEELRKLFPGKEIKVEVVELPSAGGSAGG [r6_164_TrROS_Hall],3.54 ± 0.08 kcal/mol,3.83 ± 0.14 kcal/mol,4 ± 0.057 kcal/mol

Sequence,folding stability dG unfold [1],folding stability dG unfold [2],folding stability dG unfold [3]
SAMKVEKLEELPDKEILKVEATPEELRKIVEELAKANPGYEVSYKILEEEPIALITLTPIPKGPKENLVSAG [r14_600_JUSTAS],1.08 ± 0.06 kcal/mol,0.796 ± 0.13 kcal/mol,0.0174 ± 0.2 kcal/mol
SAGGSAGGSGDSITLPVSVPKGSELVIENLSTNKKVIIPDDGPVTITIDKGKDGLKISAEVEKSAGGSAGGS [r12_919_TrMRF],-0.398 ± 0.16 kcal/mol,-0.0498 ± 0.25 kcal/mol,0.106 ± 0.053 kcal/mol
SVNPATQVVTVTREVTYPVPPSQGPISEEEAREAVEAELAARGWTLREVRVEYEGDTVTVTAVAERPAAASA [r9_1134_JUSTAS],1.04 ± 0.018 kcal/mol,1.11 ± 0.038 kcal/mol,1.13 ± 0.053 kcal/mol
SASPEDTVTTTETEPTTISLGTASIPPDLEVLSVTVTTTTTTTYKVEPPGVPVKLSSTTTTTTTVTLKRTSA [r9_747_JUSTAS],2.79 ± 0.3 kcal/mol,2.69 ± 0.38 kcal/mol,2.45 ± 0.1 kcal/mol
SAGGMANPEDFKVVESLEFRDPDNGKPFTIEIAKPPDNNVPIMIWHNGSMYMFVIDGDKIEVFPIKNSAGGS [r16_711_TrROS],1.5 ± 0.04 kcal/mol,1.75 ± 0.091 kcal/mol,1.88 ± 0.1 kcal/mol
SMKIEVEKLEDGTYVITIEDPGEDDIPVTYKAVVFVDPETGKVYVDRNIEDPNVPPELKELFENFIPGIESA [r9_715_TrMRF],2.5 ± 0.094 kcal/mol,2.92 ± 0.056 kcal/mol,3.097 ± 0.018 kcal/mol
SAGGIEIPVNPHPSEDGQPYVMFTLEIEPKDDNGKKQERPIPFMFDSPDDAEEFASEAAPDGYKIRISAGGS [r16_652_TrROS],-0.86 ± 0.48 kcal/mol,-0.0602 ± 0.15 kcal/mol,0.196 ± 0.11 kcal/mol
SAGGSAGGSAGMTVTTITKTYPFDPNKSLSFTVPPGATITDKKTDADIAKGTVTVTVTVASAGGSAGGSAGG [r11_701_JUSTAS],0.345 ± 0.053 kcal/mol,0.436 ± 0.13 kcal/mol,0.355 ± 0.13 kcal/mol
SAGGSPGSSLIGKKKLTIKVDNKDVEVEVTTSLSFLPSNQVTTSTEVKITLPNGKKIPKSLVEKLLSAGGSA [r2_363_JUSTAS],0.711 ± 0.044 kcal/mol,0.742 ± 0.12 kcal/mol,0.66 ± 0.17 kcal/mol
SAGGSAGGSAGGGMKVKIETTKLPNGIWRVKVYDENGNFIGEKEFTSEEELEEFKKKVASSAGGSAGGSAGG [r7_476_JUSTAS],2.98 ± 0.25 kcal/mol,4.49 ± 0.19 kcal/mol,4.6 ± 0.14 kcal/mol
SMPVTITRDFDIPLATLSVEEVKAAIEEALKAEGLNVVEPKLDEKLVKELEEAPPSSTLPVKVTVLVEPASA [r9_1163_JUSTAS],0.35 ± 0.074 kcal/mol,0.62 ± 0.15 kcal/mol,0.715 ± 0.049 kcal/mol
SAGGSAGGSAGGAEITIEEKDGKLTLTVRLPDGYVATATFDPNGKWTIKEIKVYKLPEGLSAGGSAGGSAGG [r7_826_TrROS_Hall],2.35 ± 0.3 kcal/mol,3.05 ± 0.47 kcal/mol,3.52 ± 0.077 kcal/mol
SAMTKTETFTFDDVEITVTTTEVTLPNGEKKDVYTLTKYTVDPSTGTTTPSSKTFSSKEEMEAALKASLSAG [r14_500_JUSTAS],3.6 ± 0.27 kcal/mol,3.97 ± 0.16 kcal/mol,4.036 ± 0.04 kcal/mol
SAGGSFVKIKVKFDNKPIEIPIPDFVQKVEGDYQTIVFPEGDADSVLKKLKEASKKIEIVKVEVVKPSAGGS [r8_490_TrMRF],-0.735 ± 0.24 kcal/mol,0.354 ± 0.12 kcal/mol,0.618 ± 0.13 kcal/mol
SAGGEKIEELLKELLEKLEIKPGEKVEIEIEFELEDGYRIKLKITVTYNEETGEVEIKVEIVEIEKVSAGGS [r16_634_TrROS_Hall],2.96 ± 0.12 kcal/mol,4.22 ± 0.19 kcal/mol,4.39 ± 0.17 kcal/mol
SAGEEIERLLKEIEEAVRKAYPDKVVKVDLVKVELRPVLVVDPGTPRIEERTEIFLEVKVTVTHPDELSAGG [r19_293_TrMRF],2.22 ± 0.098 kcal/mol,2.63 ± 0.087 kcal/mol,2.77 ± 0.08 kcal/mol
SAGGSAGGSGEVLLLSANSFSFSEGDGLLVVVNLPNGGYVVLPFKKGDLNLNLPSSGYSEFFGSAGGSAGGS [r12_746_TrMRF],1.3 ± 0.034 kcal/mol,1.59 ± 0.058 kcal/mol,1.79 ± 0.046 kcal/mol
SAGGSAGGSAGKTIKILLVVKDPETNEYYFLVMEIHLDENGNLHMKIKVFPTKEDAEKALSAGGSAGGSAGG [r11_792_TrROS_Hall],3.66 ± 0.19 kcal/mol,4.06 ± 0.15 kcal/mol,4.15 ± 0.085 kcal/mol
SAGGSAVKIDPKTKVIEVKNPETGETYRISLPDVPPEDGVEVEVGDDKIIIKTPKGTKEIPIDKAKSAGGSA [r15_864_TrMRF],-0.000856 ± 0.16 kcal/mol,0.529 ± 0.25 kcal/mol,0.794 ± 0.18 kcal/mol
SAMKLPKDVEIKEIKFDPEKTVTIKIKVKKYDFFIYDPETGKVIVIKPGEEKEITLPANIPLLIFAIKPSAG [r14_385_TrMRF],2.16 ± 0.092 kcal/mol,2.16 ± 0.23 kcal/mol,1.91 ± 0.098 kcal/mol
SAGGSAGGSSSSTLISVEPSPGIVTVERPLSLDPVPVVERRIMTVSPSSSLSVTETSVFPVSLLSAGGSAGG [r6_970_JUSTAS],0.818 ± 0.095 kcal/mol,1.02 ± 0.15 kcal/mol,0.932 ± 0.24 kcal/mol
